Source: publication PMC6023178, “Crystal structure of the C-terminal four-helix bundle of the potassium channel KCa3.1” (PLoS ONE, 2018)
Square brackets hold non-standard residues; d marks the D form. Ends that are not written are not given here. SeMet = C[Se]CC[C@H](N)C(=O)O

Assays:
[1] = target: the molecule itself; assay: crystal structure; native KCa3.1-CC crystallised without copper (apo); 0.1 M imidazole (pH 6.5), 1.0 M sodium acetate; 1.75 Å, molecular replacement, only partially refined
[2] = target: the molecule itself; assay: crystal structure; SeMet-containing KCa3.1-CC crystallised with 3 mM CuCl2; 0.1 M imidazole (pH 6.5), 1.0 M sodium acetate; space group P4212, 1.75 Å; four-helix bundle generated by the crystallographic four-fold axis

Row | Protein | binding result [1] | stoichiometry N [2]
1 | MILYDLQQNLSSSHRALEKQIDTLAGKLDALTELLSTALG (domain or fragment, UniProt O15554 376-415, looked up, KCa3.1 (SK4, IK1), human, C-terminal coiled-coil region, residues 376-415; Crystallised without copper (apo); also called native, apo KCa3.1-CC; source: E. coli BL21-Gold(DE3)pLysS, purified (GST-trap, thrombin cleavage, Superdex 75); not shown: GST, N-terminal, cleaved) [native KCa3.1-CC (C-terminal coiled-coil region of human KCa3.1, residues 376-415)] | binds | –
2 | [SeMet]ILYDLQQNLSSSHRALEKQIDTLAGKLDALTELLSTALG (domain or fragment, UniProt O15554 376-415, looked up, KCa3.1 (SK4, IK1), human, C-terminal coiled-coil region, residues 376-415; residues 376-414 are in the atomic model; Crystallised in the presence of 3 mM CuCl2; a Cu(II) ion is coordinated by the four copies of His389; also called SeMet KCa3.1-CC; SeMet SK4-CC (w/copper); source: E. coli B834(DE3), PASM-5052 auto-induction medium, purified (GST-trap, thrombin cleavage, Superdex 75); not shown: …) [SeMet-containing KCa3.1-CC (C-terminal coiled-coil region of human KCa3.1, residues 376-415)] | – | 4
